Data from the supplement of paper PMC10724198.
± gives the standard deviation of the averaged measurements.

Key:
[1] = system: Saccharomyces cerevisiae; assay: protein stability index of tFT-peptide fusion (C-terminal peptide) (PSI (0-1 scale)); higher = more stable (slower turnover)
Experimental: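 MPS profiling in S. cerevisiae of the tFT-X12 degron library: putative degron peptides plus stable controls, 12 aa, fused to the C-terminus of a sfGFP-mCherry timer. Cells are FACS-sorted into 8 mCherry/sfGFP bins and deep-sequenced. PSI runs from 0 (unstable) to 1 (stable). Backgrounds are wild type, das1Δ and doa10Δ at 30 °C, and wild type, das1Δ, cdc34-1 and cdc53-1 at 37 °C; 2-3 technical replicates each.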

[2] = system: Saccharomyces cerevisiae; assay: as above; settings: genetic background: wild type; temperature: 30 C
[3] = genetic background: cdc34-1, temperature: 37 C
[4] = genetic background: cdc53-1, temperature: 37 C
[5] = genetic background: das1 deletion, temperature: 30 C
[6] = genetic background: das1 deletion, temperature: 37 C
[7] = genetic background: doa10 deletion, temperature: 30 C
[8] = genetic background: wild type, temperature: 30 C
[9] = genetic background: wild type, temperature: 37 C
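Also: PSI is a weighted mean of sequencing reads over stability bins, variants kept only with over 10 reads, mCherry proximal and sfGFP distal, peptide attached via GGGS linker.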

| Sequence | protein stability index [1, 3] | protein stability index [1, 4] | protein stability index [1, 5] | protein stability index [1, 6] | protein stability index [1, 7] | protein stability index [1, 8] | protein stability index [1, 9] | protein stability index [2] |
| --- | --- | --- | --- | --- | --- | --- | --- | --- |
| FSVTTLTILCLR | 0.305 ± 0.017 | 0.329 ± 0.011 | 0.273 ± 0.029 | 0.394 ± 0.017 | 0.49 ± 0.061 | 0.277 ± 0.02 | 0.382 ± 0.0086 | 0.3497 ± 0.0014 |
| WVLFRLPYQFFS | 0.668 ± 0.048 | 0.707 ± 0.021 | 0.57 ± 0.038 | 0.737 ± 0.026 | 0.368 ± 0.0073 | 0.393 ± 0.022 | 0.633 ± 0.0017 | 0.436 ± 0.0098 |
| FCTVYFVCVWEM | 0.1957 ± 0.0014 | 0.273 ± 0.022 | 0.209 ± 0.043 | 0.393 ± 0.033 | 0.177 ± 0.03 | 0.212 ± 0.015 | 0.362 ± 0.014 | 0.334 ± 0.055 |
| FFRVCNALLLVC | 0.0637 ± 0.058 | 0.0334 ± 0.0086 | 0.148 ± 0.026 | 0.152 ± 0.025 | 0.0531 ± 0.0033 | 0.0394 ± 0.01 | 0.0662 ± 0.015 | 0.0759 ± 0.035 |
| GFFLCTCIRFWV | 0.452 ± 0.018 | 0.518 ± 0.034 | 0.386 ± 0.027 | 0.544 ± 0.01 | 0.2478 ± 0.0011 | 0.254 ± 0.028 | 0.421 ± 0.018 | 0.316 ± 0.016 |
| SLSSSFQFSSPS | 0.701 ± 0.035 | 0.7506 ± 0.0045 | 0.69 ± 0.051 | 0.722 ± 0.026 | 0.6672 ± 0.00083 | 0.65 ± 0.032 | 0.7357 ± 0.0029 | 0.726 ± 0.094 |
| CICAFCSLNLLC | 0.695 ± 0.01 | 0.774 ± 0.016 | 0.61 ± 0.012 | 0.765 ± 0.011 | 0.289 ± 0.0064 | 0.324 ± 0.023 | 0.607 ± 0.013 | 0.435 ± 0.011 |
| HLGNTMIKKLIG | 0.695 ± 0.049 | 0.722 ± 0.046 | 0.621 ± 0.012 | 0.728 ± 0.035 | 0.405 ± 0.033 | 0.459 ± 0.064 | 0.6202 ± 0.0029 | 0.516 ± 0.023 |
| CPVSRHLLVLYW | 0.413 ± 0.0094 | 0.4424 ± 0.0029 | 0.345 ± 0.029 | 0.4933 ± 0.0031 | 0.402 ± 0.017 | 0.331 ± 0.019 | 0.47 ± 0.012 | 0.432 ± 0.029 |
| QCSVRLKEIQFS | 0.664 ± 0.032 | 0.726 ± 0.011 | 0.673 ± 0.03 | 0.72 ± 0.028 | 0.209 ± 0.023 | 0.276 ± 0.0056 | 0.481 ± 0.045 | 0.346 ± 0.1 |
| LYLFKVLFFRVF | 0.122 ± 0.047 | 0.173 ± 0.026 | 0.286 ± 0.045 | 0.458 ± 0.06 | 0.0857 ± 0.0067 | 0.0584 ± 0.016 | 0.102 ± 0.015 | 0.104 ± 0.048 |
| DILCGRCMIVGA | 0.592 ± 0.045 | 0.573 ± 0.023 | 0.415 ± 0.041 | 0.6044 ± 0.0056 | 0.393 ± 0.0059 | 0.422 ± 0.011 | 0.555 ± 0.013 | 0.495 ± 0.018 |
| LYYSVIFLFLSW | 0.255 ± 0.0028 | 0.306 ± 0.023 | 0.232 ± 0.033 | 0.371 ± 0.016 | 0.272 ± 0.036 | 0.208 ± 0.026 | 0.334 ± 0.033 | 0.339 ± 0.047 |
| AFVALCACVIFV | 0.175 ± 0.015 | 0.249 ± 0.026 | 0.215 ± 0.039 | 0.362 ± 0.005 | 0.178 ± 0.016 | 0.202 ± 0.026 | 0.302 ± 0.0078 | 0.302 ± 0.025 |
| PVPPSLLHRPPF | 0.679 ± 0.056 | 0.736 ± 0.045 | 0.682 ± 0.014 | 0.722 ± 0.018 | 0.677 ± 0.011 | 0.673 ± 0.021 | 0.727 ± 0.027 | 0.33 ± 0.014 |
| VCFCFLRFLSLL | 0.543 ± 0.043 | 0.685 ± 0.014 | 0.572 ± 0.031 | 0.716 ± 0.031 | 0.176 ± 0.0026 | 0.191 ± 0.0057 | 0.24 ± 0.019 | 0.262 ± 0.016 |
| KLLISLTWFCVL | 0.395 ± 0.036 | 0.476 ± 0.014 | 0.373 ± 0.029 | 0.527 ± 0.019 | 0.165 ± 0.0032 | 0.192 ± 0.028 | 0.3344 ± 0.00067 | 0.284 ± 0.092 |
| LRRVHRIKLQVC | 0.254 ± 0.06 | 0.431 ± 0.035 | 0.288 ± 0.029 | 0.477 ± 0.014 | 0.0938 ± 0.0029 | 0.0996 ± 0.015 | 0.102 ± 0.0019 | 0.178 ± 0.094 |
| RRIKIRKQEYIS | 0.572 ± 0.13 | 0.696 ± 0.04 | 0.684 ± 0.029 | 0.719 ± 0.018 | 0.185 ± 0.0051 | 0.217 ± 0.023 | 0.459 ± 0.021 | 0.313 ± 0.029 |
